According to the supplement of paper PMC11908140:

B1: library; numbered along this chain (parent)
chain: MRKPRAAVGSGHRKQAASQEGRQKHAKNNSQAKPSACDGLARQPEEVVLQASVSSYHLFRDVAEVTAFRGSLLSWYDQEKRDLPWRRRAEDEMDLDRRAYAVWVSEVMLQQTQVATVINYYTGWMQKWPTLQDLASASLEEVNQLWAGLGYYSRGRRLQEGARKVVEELGGHMPRTAETLQQLLPGVGRYTAGAIASIAFGQATGVVDGNVARVLCRVRAIGADPSSTLVSQQLWGLAQQLVDPARPGDFNQAAMELGATVCTPQRPLCSQCPVESLCRARQRVEQEQLLASGSLSGSPDVEECAPNTGQCHLCLPPSEPWDQTLGVVNFPRKASRKPPREESSATCVLEQPGALGAQILLVQRPNSGLLAGLWEFPSVTWEPSEQLQRKALLQELQRWAGPLPATHLRHLGEVVHTFSHIKLTYQVYGLALEGQTPVTTVPPGARWLTQEEFHTAAVSTAMKKVFRVYQGQQPGTCMGSKRSQVSSPCSRKKPRMGQQVLDNFFRSHISTDAHSLNSAAQ

Variants of: B1
Test: 8OG:A repair function score (normalized; synonymous = 0, nonsense = -1) (normalized log-likelihood score); higher = more repair activity (WT-like)
Conditions: with 8OG:A DNA repair reporter (GFP) in HEK-293 MUTYH KO cells
Procedure, shortened: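 Per-tile Rosace fitness scores were converted to a normalized repair function score anchored on synonymous and nonsense distributions. That scale puts synonymous medians at 0 and nonsense medians at -1. Variants with starting counts under 300 counts per million were discarded. Input came from sorting viable mCherry+ MUTYH knockout HEK-293 cells, carrying lentiviral MUTYH cDNA NNN codon-scan libraries in 10 pg/ml doxycycline and an 8OG:A GFP repair reporter, into GFP+ and GFP− bins at 72 h, three replicates per tile, followed by tile amplicon sequencing.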
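Note: cells sorted at 72 h after reporter transfection.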

Variant | 8OG:A repair function score
MRKPRAAVGSGHRKQAASQEGRQKHAKNNSQAKPSACDGLARQPEEVVLQASVSSYHLFRDVAEVTAFRGSLLSWYDQEKRDLPWRRRAEDEMDLDRRAYAVWVSEVMLQQTQVATVINYYTGWMQKWPTLQDLASASLEEVNQLWAGLGYYSRGRRLQEGARKVVEELGGHMPRTAETLQQLLPGVGRYTAGAIASIAFGQATGVVDGNVARVLCRVRAIGADPSSTLVSQQLWGLAQQLVDPARPGDFNQAAMELGATVCTPQRPLCSQCPVESLCRARQRVEQEQLLASGSLSGSPDVEECAPNTGQCHLCLPPSEPWDQTLGVVNFPRKASRKPPREESSATCVLEQPGALGAQILLVQRPNSGLLAGLWEFPSVTWEPSEQLQRKALLQELQRWAGPLPATHLRHLGEVVHTFSHIKLTYQVYGLALEGQTPVTTVPPGARWLTQEEFHTAAVSTAMKKVFRVYQGQQPGTCMGSKRSQVSSPCSRKKPKMGQQVLDNFFRSHISTDAHSLNSAAQ [R495K] | 0.00711
MRKPRAAVGSGHRKQAASQEGRQKHAKNNSQAKPSACDGLARQPEEVVLQASVSSYHLFRDVAEVTAFRGSLLSWYDQEKRDLPWRRRAWDEMDLDRRAYAVWVSEVMLQQTQVATVINYYTGWMQKWPTLQDLASASLEEVNQLWAGLGYYSRGRRLQEGARKVVEELGGHMPRTAETLQQLLPGVGRYTAGAIASIAFGQATGVVDGNVARVLCRVRAIGADPSSTLVSQQLWGLAQQLVDPARPGDFNQAAMELGATVCTPQRPLCSQCPVESLCRARQRVEQEQLLASGSLSGSPDVEECAPNTGQCHLCLPPSEPWDQTLGVVNFPRKASRKPPREESSATCVLEQPGALGAQILLVQRPNSGLLAGLWEFPSVTWEPSEQLQRKALLQELQRWAGPLPATHLRHLGEVVHTFSHIKLTYQVYGLALEGQTPVTTVPPGARWLTQEEFHTAAVSTAMKKVFRVYQGQQPGTCMGSKRSQVSSPCSRKKPRMGQQVLDNFFRSHISTDAHSLNSAAQ [E90W] | -0.0857
MRKPRAAVGSGHRKQAASQEGRQKHAKNNSQAKPSACDGLARQPEEVVLQASVSSYHLFRDVAEVTAFRGSLLSWYDQEKRDLPWRRRAEDEMDLDRRAYAVWVSEVMLQQTQVATVINYYTGWMQKWPTLQDLASASLEEVNQLWAGLGYYSRGRRLQEGARKVVEELGGHMPRTAETLQQLLPGVGRYTAGAIASIAFGQATGVVDGNVARVLCRVRAIGADPSSTLVSQQLWGLAQQLVDPARPGDFNQAAMELGATVCTPQRPLCSQCPVESLCRARQRVEQEQLLASGSLSGSPDVEECAPNTGQCHLCLPPSEPWDQTLGVVNFPRKASRKPPREESSATCVLEQPGALGAQILLVQRPNSGLLAGLWEFPSVTWEPSEQLQRKALLQELQRWAGPLPATHLRHLGEVVHTFSHIKLTYQVYGLALEGQTPVTTVPPGARWLTQEEFHTAAVSTAMKKVFRVYQGQQPGTCMGSKRSQVSSPCSRKKPRMGQQVLDNFFDSHISTDAHSLNSAAQ [R506D] | 0.0134
MRKPRAAVGSGHRKQAASQEGRQKHAKNNSQAKPSACDGLARQPEEVVLQASVSSYHLFRDVAEVTAFRGSLLSWYDQEKRDLPWRRRAEDEMDLDRRAYAVWVSEVMLQQTQVATVINYYTGWMQKWPTLQDLASASLEEVNQLWAGLGYYSRGRRLQEGARKVVEELGGHMPRTAETLQQLLPGVGRYTAGAIASIAFGQATGVVDGNVARVLCRVRAIGADPSSTLVSQQLWGLAQQLVDPARPGDFNQAAMELGATVCTPQRPLCSQCPVESLCRARQRVEQEQLLASGSLSGSPDVEECAPNTGQCHLCLPPSEPWDQTLGVVNFPRKASRKPPREESSATCVLEQPGALGAQILLVQRPNSGLLAGLWEFPSVTWEPSEQLQRKALLQELQRWAGPLPATHLRHLGEVVHTFSHIKLTYQVYGLALEGQTPVTTVPPGARWLTQEEFHTAAVSTAMKKVFRCYQGQQPGTCMGSKRSQVSSPCSRKKPRMGQQVLDNFFRSHISTDAHSLNSAAQ [V468C] | -0.0116
MRKPRAAVGSGHRKQAASQEGRQKHAKNNSQAKPSACDGLARQPEEVVLQASVSSYHLFRDVAEVTAFRGSLLSWYDQEKRDLPWRRRAEDEMDLDRRAYAVWVSEVMLQQTQVATVINYYTGWMQKWPTLQDLASASLEEVNQLWAGLGYYSRGRRLQEGARKVVEELGGHMPRTAETLQQLLPGVGRYTAGAIASIAFGQATGVVDGNVARVLCRVRAIGADPSSTLVSQQLWGLAQQLVDPARPGDFNQAAMELGATVCTPQRPLCSQCPVESLCRARQRVEQEQLLASGSLSGSPDVEECAPNTGQCHLCLPPSEPWDQTLGVVNFPRKASRKPPREESSATCVLEQPGALGAQILLVQRPNSGLLAGLWEFPSVTWEPSEQLQRKALLQELQRWAGPLPATHLRHLGEVVHTFSHIKRTYQVYGLALEGQTPVTTVPPGARWLTQEEFHTAAVSTAMKKVFRVYQGQQPGTCMGSKRSQVSSPCSRKKPRMGQQVLDNFFRSHISTDAHSLNSAAQ [L423R] | -0.232
MRKPRAAVGSGHRKQAASQEGRQKHAKNNSQAKPSACDGLARQPEEVVLQASVSSYHLFRDVAEVTAFRGSLLSWYDQEKRDLPWRRRAEDEMDLDRRAYAVWVSEVMLQQTQVATVINYYTGWMQKWPTLQDLASASLEEVNQLWAGLGYYSRGRRLQEGARKVDEELGGHMPRTAETLQQLLPGVGRYTAGAIASIAFGQATGVVDGNVARVLCRVRAIGADPSSTLVSQQLWGLAQQLVDPARPGDFNQAAMELGATVCTPQRPLCSQCPVESLCRARQRVEQEQLLASGSLSGSPDVEECAPNTGQCHLCLPPSEPWDQTLGVVNFPRKASRKPPREESSATCVLEQPGALGAQILLVQRPNSGLLAGLWEFPSVTWEPSEQLQRKALLQELQRWAGPLPATHLRHLGEVVHTFSHIKLTYQVYGLALEGQTPVTTVPPGARWLTQEEFHTAAVSTAMKKVFRVYQGQQPGTCMGSKRSQVSSPCSRKKPRMGQQVLDNFFRSHISTDAHSLNSAAQ [V166D] | -0.293
MRKPRAAVGSGHRKQAASQEGRQKHAKNNSQAKPSACDGLARQPEEVVLQASVSSYHLFRDVAEVTAFRGSLLSWYDQEKRDLPWRRRAEDEMDLDRRAYAVWVSEVMLQQTQVATVINYYTGWMQKWPTLQDLASASLEEVNQLWAGLGYYSRGRRLQEGARKVVEELGGHMPRTAETLQQLLPGVGRYTAGAIASIAFGQATGVVDGNVARVLCRVRAIGADPSSTLVSQQLWGLAQQLVDPARPGDFNQAAMELGATVCTPQRPLCSQCPVEELCRARQRVEQEQLLASGSLSGSPDVEECAPNTGQCHLCLPPSEPWDQTLGVVNFPRKASRKPPREESSATCVLEQPGALGAQILLVQRPNSGLLAGLWEFPSVTWEPSEQLQRKALLQELQRWAGPLPATHLRHLGEVVHTFSHIKLTYQVYGLALEGQTPVTTVPPGARWLTQEEFHTAAVSTAMKKVFRVYQGQQPGTCMGSKRSQVSSPCSRKKPRMGQQVLDNFFRSHISTDAHSLNSAAQ [S276E] | -0.0386
MRKPRAAVGSGHRKQAASQEGRQKHAKNNSQAKPSACDGLARQPEEVVLQASVSSYHLFRDVAEVTAFRGSLLSWYDQEKRDLPWRRRAEDEMDLDRRAYAVWVSEVMLQQTQVATVINYYTGWMQKWPTLQDLASASLEEVNQLWAGLGYYSRGRRLQEGARKVVEELGGHMPRTAETLQQLLPGVGRYTAGAIASIAFGQATGVVDGNVARVLCRVRAIGADPSSTLVSQQLWGLAQQLVDPARPGDFNQAAMELGATVCTPQRPLCSQCPVESLCRARQRVEQEQLLASGSLSGSPDVEECAPNTGQCHLCLPPSEPWDQTLGVVNFPRKASRKPPREESSATCVLEQPGALGAQILLVQRPNSGLLAGLWEFPSVTWEPSEQLQRKALLQELQRWAGPLPATHLRHLGEVVHTFSHIKLTYQVYGLALEGQTPVTTVPPGARWLTQEEFHTAAVSTAMKKVFRVYQGQQPGTCMGSKRSQVSSPCSRKKPRMGQQVLDNFFRSHISTDADSLNSAAQ [H514D] | -0.0358
MRKPRAAVGSGHRKQAASQEGRQKHAKNNSQAKPSACDGLARQPEEVVLQASVSSYHLFRDVAEVTAFRGSLLSWYDQEKRDLPWRRRAEDEMDLDRRAYAVWVSEVMLQQTQVATVINYYTGWMQKWPTLQDLASASLEEVNQLWAGLGYYSRGRRLQEGARKVVEELGGHMPRTAETLQQLLPGVGRYTAGAIASIAFGQATGVVDGNVARVLCRVRAIGADPSSTLVSQQLWGLAQQLVDPARPGDFNQEAMELGATVCTPQRPLCSQCPVESLCRARQRVEQEQLLASGSLSGSPDVEECAPNTGQCHLCLPPSEPWDQTLGVVNFPRKASRKPPREESSATCVLEQPGALGAQILLVQRPNSGLLAGLWEFPSVTWEPSEQLQRKALLQELQRWAGPLPATHLRHLGEVVHTFSHIKLTYQVYGLALEGQTPVTTVPPGARWLTQEEFHTAAVSTAMKKVFRVYQGQQPGTCMGSKRSQVSSPCSRKKPRMGQQVLDNFFRSHISTDAHSLNSAAQ [A253E] | -1.02
MRKPRAAVGSGHRKQAASQEGRQKHAKNNSQAKPSACDGLARQPEEVVLQASVSSYHLFRDVAEVTAFRGSLLSWYDQEKRDLPWRRRAEDEMDLDRRAYAVWVSEVMLQQTQVATVINYYTGWMQKWPTLQDLASASLEEVNQLWAGLGYYSRGRRLQEGARKVVEELGGHMPRTAETLQQLLPGVGRYTAGAIASIAFGQATGVVDGNVARVLCRVRAIGADPSSTLVSQQLWGLAQQLVDPARPGDFNQAAMELGATVCTPQRPLCSQCPVESLCRARQRVEQEQLLASGSLSGSPDVEECAPNTGQCHLCLPPSEPWDQTLGVVNFPRKASRKPPREESSATCVLEQPGALGAQILLVQRPNSGLLAGLFEFPSVTWEPSEQLQRKALLQELQRWAGPLPATHLRHLGEVVHTFSHIKLTYQVYGLALEGQTPVTTVPPGARWLTQEEFHTAAVSTAMKKVFRVYQGQQPGTCMGSKRSQVSSPCSRKKPRMGQQVLDNFFRSHISTDAHSLNSAAQ [W374F] | -0.33
MRKPRAAVGSGHRKQAASQEGRQKHAKNNSQAKPSACDGLARQPEEVVLQASVSSYHLFRDVAEVTAFRGSLLSWYDQEKRDLPWRRRAEDEMDLDRRAYAVWVSEVMLQQTQVATVINYYTGWMQKWPTLQDLASASLEEVNQLWAGLGYYSRGRRLQEGARKVVEELGGHMPRTAETLQQLLPGVGRYTAGAIASIAFGQATGVVDGNVARVLCRVRAIGADPSSTLVSQQLWGLAQQLVDPARPGDFNWAAMELGATVCTPQRPLCSQCPVESLCRARQRVEQEQLLASGSLSGSPDVEECAPNTGQCHLCLPPSEPWDQTLGVVNFPRKASRKPPREESSATCVLEQPGALGAQILLVQRPNSGLLAGLWEFPSVTWEPSEQLQRKALLQELQRWAGPLPATHLRHLGEVVHTFSHIKLTYQVYGLALEGQTPVTTVPPGARWLTQEEFHTAAVSTAMKKVFRVYQGQQPGTCMGSKRSQVSSPCSRKKPRMGQQVLDNFFRSHISTDAHSLNSAAQ [Q252W] | -1.04
MRKPRAAVGSGHRKQAASQEGRQKHAKNNSQAKPSACDGLARQPEEVVLQASVSSYHLFRDVAEVTAFRGSLLSWYDQEKRDLPWRRRAEDEMDLDRRAYAVWVSEVMLQQTQVATVINYYTGWMQKWPTLQDLASASLEEVNQLWAGLGYYSRGRRLQEGARKVVEELGGHMPRTAETLQQLLPGVGRYTAGAIASIAFGQATGVVDGNVARVLCRVRAIGADPSSTLVSQQLWGLAQQLVDPARPGDFNQAAMELGATVCTPQRPLCSQCPVESLCRARQRVEQEQLLASGSLSFSPDVEECAPNTGQCHLCLPPSEPWDQTLGVVNFPRKASRKPPREESSATCVLEQPGALGAQILLVQRPNSGLLAGLWEFPSVTWEPSEQLQRKALLQELQRWAGPLPATHLRHLGEVVHTFSHIKLTYQVYGLALEGQTPVTTVPPGARWLTQEEFHTAAVSTAMKKVFRVYQGQQPGTCMGSKRSQVSSPCSRKKPRMGQQVLDNFFRSHISTDAHSLNSAAQ [G297F] | 0.016
